Laboratory results from the supplement of paper PMC10266784.

B1: library; numbered along this chain (parent)
chain: MAAAAAAAAEQQSSNGPVKKSMREKAVERRSVNKEHNSNFKAGYIPIDEDRLHKTGLRGRKGNLAICVIILLFILAVINLIITLVIWAVIRIGPNGCDSMEFHESGLLRFKQVSDMGVIHPLYKSTVGGRRNENLVITGNNQPIVFQQGTTKLSVENNKTSITSDIGMQFFDPRTQNILFSTDYETHEFHLPSGVKSLNVQKASTERITSNATSDLNIKVDGRAIVRGNEGVFIMGKTIEFHMGGNMELKAENSIILNGSVMVSTTRLPSSSSGDQLGSGDWVRYKLCMCADGTLFKVQVTSQNMGCQISDNPCGNTH

Variants of: B1
Assay: SGCB cell-surface expression functional score (HA stain, bin4 vs bin1, normalised to synonymous) (log10 ratio); higher = more cell-surface SGCB (functional)
Description: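 Deep mutational scan of full-length human SGCB (YFP-SGCB-HA, NNN codon sublibraries A-F) delivered by lentivirus at low MOI into ADG-HEK293 cells stably expressing SGCA, SGCD and SGCG. YFP-positive cells were stained for surface HA on unpermeabilized cells and FACS-sorted into bins. The functional score is log10(frequency in high bin 4 / frequency in low bin 1), normalised per chunk so that synonymous variants have mean 0 and SD 0.5. Scores are the median over codons and over duplicate biological replicates; scores below -0.5 are called non-functional. Scale: negative means deleterious.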

SGCB cell-surface expression functional score (log10): each site, then its substitutions
D48: E -0.17 | K -0.09 | M 0.77 | I 0.19 | P 0.18 | S 0.3 | V 0.07 | Q -0.36 | L 0.18 | F 0.37 | A 0.6 | N 0.13 | R -0.06 | G -0.07 | H 0.33 | C 0.13 | W 0.22 | Y 0.4 | T -0.04
K54: V 0.08 | H -0.42 | L 0.21 | A 0.23 | W 0.69 | N 0.23 | M -0.19 | F -0.13 | P -0.04 | S 0.14 | R 0.2 | D -0.71 | T 0.27 | E 0.02 | C 0.29 | Y 0.29 | Q -0.58 | I 0.01 | G 0.21
K41: P 0.21 | L 0.1 | W 0.02 | T 0.26 | M 0.55 | R -0.25 | Y -0.07 | H 0.22 | F -0.47 | Q 0.4 | I -0.28 | G -0.27 | N 0.25 | V 0.04 | S 0.28
R58: F 0.09 | S -0.22 | H 0.19 | K -0.66 | E -0.08 | G 0 | C -0.55 | A 0.08 | L 0 | P 0.27 | I 0.13 | Q -0.12 | D 0.21 | M -0.15 | N 0.17
P46: S 0.15 | G 0.65 | Y 0.03 | T 0.21 | K -0.07 | R -0.18 | A -0.03 | D -0.14 | N 0.18 | M 0 | C 0.44 | F 0.22 | I 0.27 | W -0.33 | L -0.2 | V -0.23 | H 0.31 | Q 0.28 | E 0.1
G43: I -0.07 | R 0.51 | T 0.05 | W 0.34 | D 0.22 | Y -0.59 | A 0.25 | M -0.74 | Q 0.32 | V 0.07 | S 0.34 | E 0.18 | F -0.52 | P 0.76 | H 0.33 | N 0.18 | K 0.2 | C -0.02 | L -0.21
H53: L -0.05 | A 0.38 | D -0.16 | P 0.19 | K -0.51 | Q 0.39 | G 0.41 | W -0.6 | C -0.27 | F -0.19 | T 0.14 | M 0.08 | Y 0.27 | V 0.1 | E -0.28 | I 0.12 | N 0.08 | S -0.22 | R 0.29
T55: R 0.21 | M 0.6 | L 0.08 | S 0.22 | Q -0.62 | P 0.19 | H 0.01 | C 0.27 | W -0.27 | G 0.16 | E -0.18 | D 0.39 | K -0.06 | V -0.07 | N 0.75 | A -0.43 | Y 0.15 | F 0.18 | I 0.07
L57: C 0.07 | I 0.49 | H -0.36 | D -0.4 | P -0.03 | M 0.09 | V 0.2 | T 0.18 | R 0.07 | A 0.45 | K 0.32 | G 0.28 | Y 0.49 | E 0.04 | N 0.02 | W 0.44 | Q -0.03 | S 0.11 | F 0.06
I45: W 0.91 | C -0.09 | E 0.23 | Q -0.67 | G -0.04 | P 0.52 | N 0.15 | S -0.08 | F -0.02 | M 0.43 | L -0.03 | Y 0.68 | D 0.9 | H 0.03 | R -0.17 | T 0.15 | A 0.33 | K -0.41 | V 0.48
Y44: N -0.24 | G 0.59 | Q 0.8 | M 0.39 | I 0.42 | F 0.02 | L 0.55 | D 0.53 | C 0.8 | V 0.64 | T 0.39 | W 0.07 | K 0.04 | S 0.14 | R 0.08 | H 0.01 | A 0.04 | P 0.61 | E 0.75
D50: E 0.3 | C 0 | K 0.54 | H 0.24 | I 0.07 | W -0.47 | M 0.2 | A 0.14 | N 0.29 | V -0.03 | Q 0.04 | R 0.28 | L 0.12 | P -0.16 | Y 0 | F 0.27 | S 0.26 | G 0.3 | T 0.44
A42: D -0.28 | N -0.67 | P 0.02 | C 0.21 | K 0.18 | L -0.02 | I -0.45 | G 0.22 | Y -0.17 | W 0.29 | E 0.71 | M 0.33 | T 0.1 | V -0.08 | F -0.42 | H -0.08 | S 0.1 | Q -0.07 | R -0.08
R51: V 0.39 | I 0.36 | T 0.01 | W 0.83 | M -0.39 | H 0 | L 0.47 | D -0.06 | G -0.17 | N 0.2 | S 0.04 | F 0.49 | Y 0.17 | Q 0.54 | K 0.63 | A 0.1 | P 0.04 | C -0.24 | E 0.04
I47: T 0.58 | C 0.31 | H 0.63 | D 0.59 | E 0.72 | R -0.19 | P 0.47 | W -0.62 | F -0.49 | M 0.47 | G 0.36 | A 0.17 | K 0.52 | L -0.14 | S 0.29 | V 0.12 | Y 0.65 | Q 0.68 | N 0.73
E49: G 0.17 | Y 0.09 | W 0.56 | S 0.15 | D 0.02 | A 0.29 | I 0.51 | M 0.12 | T 0.27 | N 0.48 | P 0.54 | K 0.42 | Q -0.19 | V 0.12 | R 0.35 | F 0.11 | C 0.3 | H -0.23 | L -0.04
L52: P 0.32 | K -0.26 | Q 0.35 | M 0.34 | C 0.09 | Y 0.25 | E 0.55 | N 0.27 | I -0.3 | R 0.05 | G 0.29 | S -0.1 | V 0.17 | H 0.01 | D 0.39 | A 0.22 | W -0.3 | T 0.42 | F 0.04
G56: I 0.26 | S 0.21 | A 0.21 | M -0.31 | L 0.23 | T 0.4 | H 0.15 | P 0.22 | D -0.5 | R 0.14 | Q -0.39 | Y 0.34 | K 0.41 | C -0.17 | N -0.1 | F 0.28 | E -0.3 | V 0.05 | W -0.16
